Laboratory results reported in US20260124324A1, “PHOTOCLICK CHEMISTRY OF SILK FOR TEMPORARY UV TATTOOS” (Trustees of Tufts College, priority 2023, published 2026).
Where two headings read alike, the source gives them in different places.

Legend:
[1] = literature values of related compounds; cited from earlier work
[2] = pyrazoline bound to SilMA, derived from the named DAT
Experimental: Fluorophores bound to either silk or PEG-DA were generated by dissolving a DAT precursor to a final concentration of 100 μM in water for silk-bound fluorophores and either DIW, IPA or ethyl acetate (EtAc) for PEG-DA-bound fluorophores. These were reacted by exposure to 302 nm light (specs) for 10 minutes under constant stirring. To an opaque black 96-well plate (Corning 3915) was added 3 separate 100 μL aliquots of fluorophore solution. These were measured by a Molecular Devices SpectraMax M2 plate reader, exciting at either 300, 365 or 405 nm and recording spectra from 25 nm […] the excitation wavelength down to 650 nm with a 5 nm resolution.

[3] = DAT precursor, UV-Vis absorption
Experimental: Spectroscopy was performed using a Synergy HT plate reader in with sample Corning Costar UV-transparent 96 well plates (Corning 3635). Initially samples were diluted to 1 mg/mL in either IPA or DIW and a dilution curve was made with each step reducing the concentration by half. The concentration chosen for measurement was the most concentrated sample that had the peak of interest entirely below 1.0 absorption units. When an appropriate concentration was found 100 μL of sample was then loaded into each well with samples loaded in triplicate. If the standard deviation between replicates exceeded 0.05 AU the measurement was repeated with fresh samples.

[4] = Patterned fluorescent films (SilMA or SF/PEG-DA); format: physicochemical
Experimental: Multispectral imaging was performed with a Nuance FX multispectral imaging system with a Canon macro lens and illuminated by 365 nm light. Exposure times were varied by sample and were selected by automatic exposure timing in the acquisition software. Images were processed using Nuance software and spectral elements were picked by hand from at least 20 sample locations. Raw processed spectra had large discontinuities introduced by the internal monochromator, which were removed with a custom algorithm.
A glass coverslip (22×22 mm) was placed onto the vacuum chuck of a Laurell WS-650 spin coater. Onto the surface was pipetted 100 μL of silk solution (7.0% w/w silk fibroin, 0.7% w/w polyethylene glycol diacrylate), which was manually spread to cover the entire surface. […] The sample was then water vapor annealed by being placed in a Memmert UN 30 Plus humidity-controlled oven at 45 C and 90% relative humidity. A timer was started once the oven had reached 90% humidity after then drop due to sample addition and allowed to sit in the oven for 5.0 minutes. Once removed the sample was loaded onto the vacuum chuck again and 30 μL of DAT solution (5 mg/mL DAT in isopropyl alcohol) was dropped onto the surface. A combined spreading/evaporation program was run with a single 20 second phase (4000 RPM, 250 RPM/sec). The sample was then covered by a photomask and exposed to 302 nm UV light (Labortechnik UVLMS-38 8 Watt UV multiwavelength lamp) to induce the photoclick reaction. If a multi-emitter film was to be fabricated, then a PDMS isolation layer must be applied if the lower layer is composed of SF/PEG-DA. To form the isolation layer, Sylgard 184 monomer was mixed with curing agent in a 10:1 ratio and 500 μL was applied to the glass slide by spin coating (5 sec, 500 RPM spread, 30 sec 5000 RPM thinning, 500 RPM/sec acceleration). This was cured by heating the slide on a 80 C hotplate for 30 minutes. The subsequent layer could then be applied in an identical manner to the first. If SilMA was used as the lower layer, the isolation layer is not needed and the second layer can be applied directly.
Films were fabricated with a spin-coating process, where either SilMA or a mixture of SF and PEGDA were dropped onto glass coverslips and spun to produce uniform films. Afterwards the films were water vapor annealed to recrystallize them and lock in the position of the polymer(s). Next a solution of the DAT dye in IPA or DI water was drop cast onto the surface, then spun to remove excess solution. This film was then exposed to 302 nm UV light through a quartz photomask or steel shadow mask for 30 seconds. The DAT impregnated films reacted promptly and attained 60% of their full fluorescent brightness in 30 seconds and their maximum brightness in less than 5 minutes (FIG. 21A,B). […]

[5] = Fluorescence titration (pH dependence, pKa) of PEG-DA-bound pyrazolines; format: physicochemical
Experimental: A 100 mL beaker was placed on a stir plate and filled with 50 mL of either deionized water or isopropyl alcohol and a magnetic stirrer. Fluorescent pyrazoline bound to PEG was added to a final concentration of 1 mg/mL and stirred until homogenous. An Ocean Optics SR fiber spectrometer was attached to a UV-Vis optical fiber (200-800 nm, 200 μm core diameter) and the fiber was mounted such that it was normal to the surface of the liquid. A 365 nm LED was placed at such that it illuminated the beaker from the side, perpendicular to the orientation of the fiber. If deionized water was used as the solvent, a pH probe was immersed in the liquid as well. The LED was switched on and the spectrometer exposure time was adjusted until the fluorescent peak reached at least 1000 counts or 3 seconds of exposure, whichever occurred first. During capture 5 exposures were averaged and smoothed by a 9-point moving average. […]
To determine the exact pH dependance of the fluorescence transition, fluorescence was monitored during an acid-base titration with a custom optical set-up (FIG. 12). […]
Resulting titrations generally produced either a sigmoidal curve with high and low pH stable regimes (FIG. 14A) or a static, pH independent fluorescence (FIG. 14B). […] The pKa values estimated by fluorescence are generally within their estimated pKa windows, with the exception of the amino derivatives (FIG. 14D). […]

Row | Compound | pKa [1] | Emission λmax ([2]; pH 3) [nm] | Excitation λmax ([2]; pH 3) [nm] | Emission λmax ([2]; pH 10) [nm] | Excitation λmax ([2]; pH 10) [nm] | Excitation λmax ([3]; peak 1) [nm] | fluorescence of resulting pyrazoline in film ([4]; PEG-DA/SF films) | fluorescence of resulting pyrazoline in film ([4]; SilMA films) | pH at which highly emissive state is centered [5] | Excitation λmax ([3]; peak 2) [nm] | Excitation λmax ([3]; peak 3) [nm]
1 | OB(O)O [boric acid] | 9.15 | – | – | – | – | – | – | – | – | – | –
2 | O=C(O)c1ccc(-c2nnn(-c3ccc(O)cc3)n2)cc1 [DAT-4, 2-(4-hydroxyphenyl)-5-(4-carboxyphenyl)-2H-tetrazole] | – | 530 | 335 | 530 | 360 | 296 | – | – | – | – | –
3 | Nc1cccc(-c2nnn(-c3ccccc3)n2)c1 [DAT-9, 5-(3-aminophenyl)-2-phenyl-2H-tetrazole] | – | 455 | 365 | 460 | 375 | 271 | visible | nearly completely quenched | – | – | –
4 | Nc1ccc(-c2nnn(-c3ccccc3)n2)cc1 [DAT-8, 5-(4-aminophenyl)-2-phenyl-2H-tetrazole] | – | – | – | – | – | 294 | – | – | – | – | –
5 | O=C(O)c1ccc(-c2nnn(-c3ccc(B(O)O)cc3)n2)cc1 [DAT-5, 2-(4-boronophenyl)-5-(4-carboxyphenyl)-2H-tetrazole] | – | 505 | 370 | 475 | 380 | 285 | – | – | 6 | – | –
6 | O=[N+]([O-])c1ccc(-c2nnn(-c3ccccc3)n2)cc1 [DAT-6, 5-(4-nitrophenyl)-2-phenyl-2H-tetrazole] | – | – | – | – | – | 296 | – | – | – | – | –
7 | Oc1ccc(-c2nnn(-c3ccccc3)n2)cc1 [DAT-10, 5-(4-hydroxyphenyl)-2-phenyl-2H-tetrazole] | – | 435 | – | 435 | 355 | 253 | visible | nearly completely quenched | – | 281 | 300
8 | CCOC(=O)c1ccc(-n2nnc(-c3ccc(C(=O)O)cc3)n2)cc1 [DAT-2, 2-(4-(ethoxycarbonyl)-phenyl)-5-(4-carboxyphenyl)-2H-tetrazole] | – | 460 | 370 | 455 | 350 | 265 | – | – | – | – | –
9 | O=C(O)c1ccc(-c2nnn(-c3ccc(S(=O)(=O)O)cc3)n2)cc1 [DAT-3, 2-(4-sulfophenyl)-5-(4-carboxyphenyl)-2H-tetrazole] | – | 490 | 385 | 460 | 375 | 279 | – | – | – | – | –
10 | O=[N+]([O-])c1cccc(-c2nnn(-c3ccccc3)n2)c1 [DAT-7, 5-(3-nitrophenyl)-2-phenyl-2H-tetrazole] | – | – | – | – | – | 266 | – | – | – | – | –
